Measurements published in publication PMC4460075, “ULK2 Ser 1027 Phosphorylation by PKA Regulates Its Nuclear Localization Occurring through Karyopherin Beta 2 Recognition of a PY-NLS Motif” (PLoS ONE, 2015).
Residue numbers refer to the chain shown, from its start. Numbers in names are those of the source. Blank lines part the entries; values can stand above or below the binder they belong to.

Target: T1, karyopherin beta 2 (Kapβ2), endogenous (human (endogenous in HEK293), UniProt Q92973 1-898)
T1 sequence (looked up): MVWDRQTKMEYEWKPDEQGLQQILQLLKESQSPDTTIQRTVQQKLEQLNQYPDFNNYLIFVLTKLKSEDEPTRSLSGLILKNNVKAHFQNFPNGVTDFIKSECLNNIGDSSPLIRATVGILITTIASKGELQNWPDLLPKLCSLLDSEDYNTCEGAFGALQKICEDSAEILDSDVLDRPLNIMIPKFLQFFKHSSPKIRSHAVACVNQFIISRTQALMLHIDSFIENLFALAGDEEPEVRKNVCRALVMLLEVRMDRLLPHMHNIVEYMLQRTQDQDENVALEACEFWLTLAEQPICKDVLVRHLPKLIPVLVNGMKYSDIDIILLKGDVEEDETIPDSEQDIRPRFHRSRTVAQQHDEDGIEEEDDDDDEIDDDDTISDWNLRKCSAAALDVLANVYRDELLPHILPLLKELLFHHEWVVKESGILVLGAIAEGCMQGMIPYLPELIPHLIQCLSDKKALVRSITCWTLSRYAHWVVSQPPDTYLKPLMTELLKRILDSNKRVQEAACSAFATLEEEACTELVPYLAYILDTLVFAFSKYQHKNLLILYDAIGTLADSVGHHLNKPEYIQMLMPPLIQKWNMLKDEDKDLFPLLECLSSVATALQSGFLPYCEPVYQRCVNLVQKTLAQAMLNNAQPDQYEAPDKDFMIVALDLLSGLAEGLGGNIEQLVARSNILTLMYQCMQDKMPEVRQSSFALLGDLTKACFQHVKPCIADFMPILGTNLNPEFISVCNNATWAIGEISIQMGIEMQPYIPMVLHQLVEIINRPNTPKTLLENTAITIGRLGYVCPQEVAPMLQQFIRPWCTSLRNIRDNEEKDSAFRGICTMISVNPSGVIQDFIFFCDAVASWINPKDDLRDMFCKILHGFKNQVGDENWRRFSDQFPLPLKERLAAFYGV
Assay: cell-based or functional assay

B1: EGFP-ULK2 WT (natural protein, human, UniProt Q8IYT8 1-1036, looked up)
chain: MEVVGDFEYSKRDLVGHGAFAVVFRGRHRQKTDWEVAIKSINKKNLSKSQILLGKEIKILKELQHENIVALYDVQELPNSVFLVMEYCNGGDLADYLQAKGTLSEDTIRVFLHQIAAAMRILHSKGIIHRDLKPQNILLSYANRRKSSVSGIRIKIADFGFARYLHSNMMAATLCGSPMYMAPEVIMSQHYDAKADLWSIGTVIYQCLVGKPPFQANSPQDLRMFYEKNRSLMPSIPRETSPYLANLLLGLLQRNQKDRMDFEAFFSHPFLEQGPVKKSCPVPVPMYSGSVSGSSCGSSPSCRFASPPSLPDMQHIQEENLSSPPLGPPNYLQVSKDSASTSSKNSSCDTDDFVLVPHNISSDHSCDMPVGTAGRRASNEFLVCGGQCQPTVSPHSETAPIPVPTQIRNYQRIEQNLTSTASSGTNVHGSPRSAVVRRSNTSPMGFLRPGSCSPVPADTAQTVGRRLSTGSSRPYSPSPLVGTIPEQFSQCCCGHPQGHDSRSRNSSGSPVPQAQSPQSLLSGARLQSAPTLTDIYQNKQKLRKQHSDPVCPSHTGAGYSYSPQPSRPGSLGTSPTKHLGSSPRSSDWFFKTPLPTIIGSPTKTTAPFKIPKTQASSNLLALVTRHGPAEEQSKDGNEPRECAHCLLVQGSERQRAEQQSKAVFGRSVSTGKLSDQQGKTPICRHQGSTDSLNTERPMDIAPAGACGGVLAPPAGTAASSKAVLFTVGSPPHSAAAPTCTHMFLRTRTTSVGPSNSGGSLCAMSGRVCVGSPPGPGFGSSPPGAEAAPSLRYVPYGASPPSLEGLITFEAPELPEETLMEREHTDTLRHLNVMLMFTECVLDLTAMRGGNPELCTSAVSLYQIQESVVVDQISQLSKDWGRVEQLVLYMKAAQLLAASLHLAKAQIKSGKLSPSTAVKQVVKNLNERYKFCITMCKKLTEKLNRFFSDKQRFIDEINSVTAEKLIYNCAVEMVQSAALDEMFQQTEDIVYRYHKAALLLEGLSRILQDPADIENVHKYKCSIERRLSALCHSTATV
nuclear-to-total fluorescence ratio (Fn/t) of EGFP-ULK2 WT in HEK293 cells, confocal microscopy (Fig 3D): 44.5

B4: EGFP-ULK2 P242A mutant (natural protein, human, UniProt Q8IYT8 1-1036, looked up)
chain: B1 chain with P242A
nuclear-to-total fluorescence ratio (Fn/t) of the EGFP-ULK2 P242A mutant in HEK293 cells, confocal microscopy (Fig 3D): 67.2

Now from value to binder:

nuclear-to-total fluorescence ratio (Fn/t) of endogenous ULK2 in FSK-treated HEK293 cells (normal DMEM-grown cells: 49.36+/−4.90), confocal microscopy (Fig 6Q): 52.7 | nuclear-to-total fluorescence ratio (Fn/t) of endogenous ULK2 in H89-treated HEK293 cells (normal DMEM-grown cells: 49.36+/−4.90), confocal microscopy (Fig 6Q): 35.8
B2: Uncoordinated 51-like kinase 2 (ULK2), endogenous (natural protein, human (endogenous in HEK293), UniProt Q8IYT8 1-1036, looked up)
chain: B1 chain

nuclear-to-total fluorescence ratio (Fn/t) of the EGFP-ULK2 PY-NLS (P794A) mutant in HEK293 cells, confocal microscopy (Fig 3D): 17.1
B3: EGFP-ULK2 PY-NLS mutant (P794A) (natural protein, human, UniProt Q8IYT8 1-1036, looked up)
chain: B1 chain with P794A
